Measured values: patent US20090298083

Tests used:
[1] = target: GST-Pax3 non-phosphorylated (UniProt P23760); experiment: EMSA; settings: unphosphorylated; value inferred from nearly 10-fold increase on CKII phosphorylation
[2] = target: GST-Pax3 phosphorylated at Ser205 by CKII (UniProt P23760); experiment: EMSA; settings: Pax3 phosphorylated at Ser205 by CKII; reference for maximal binding; nearly 10-fold more binding than unphosphorylated
FLAG-Pax3 = FLAG-Pax3 (UniProt P23760); experiment: cell_activity; settings: CAT assay, proliferating mouse primary myoblasts; activity completely lost after 12 h differentiation
FLAG-Pax3, sequence (P23760 other isoform, or with tags, fused parts or gaps): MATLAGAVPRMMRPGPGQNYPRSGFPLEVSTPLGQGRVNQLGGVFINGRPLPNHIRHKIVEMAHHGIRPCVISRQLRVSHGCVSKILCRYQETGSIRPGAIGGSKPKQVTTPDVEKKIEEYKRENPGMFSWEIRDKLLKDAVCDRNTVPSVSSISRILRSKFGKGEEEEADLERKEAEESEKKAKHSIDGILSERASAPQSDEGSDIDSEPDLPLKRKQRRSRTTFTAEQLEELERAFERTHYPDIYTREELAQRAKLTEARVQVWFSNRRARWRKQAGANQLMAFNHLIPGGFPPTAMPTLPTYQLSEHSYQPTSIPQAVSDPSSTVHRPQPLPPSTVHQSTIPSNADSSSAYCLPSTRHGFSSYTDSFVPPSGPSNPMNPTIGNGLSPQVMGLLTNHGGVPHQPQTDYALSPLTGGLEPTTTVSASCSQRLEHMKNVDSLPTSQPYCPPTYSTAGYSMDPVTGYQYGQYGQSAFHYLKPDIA

FLAG-Pax3-FOXO1 fusion = experiment: cell_activity; settings: CAT assay, proliferating mouse primary myoblasts; no significant change during differentiation

GST-Pax3 non-phosphorylated, sequence (P23760 other isoform, or with tags, fused parts or gaps): as above
GST-Pax3 phosphorylated at Ser205 by CKII, sequence (P23760 other isoform, or with tags, fused parts or gaps): as above

Substance | binding signal [1] | binding signal [2] | activity (fold over background) (FLAG-Pax3) | activity (fold over background) (FLAG-Pax3-FOXO1 fusion)
oligonucleotide with paired- and homeodomain recognition sequences | 10% | 100% |  | 
(PRS-9)TK-CAT reporter, six tandem repeats of Pax3 paired and homeodomain recognition sequence |  |  | 2 | 4
